The results in this text go back to the supplement of paper PMC5998384.

Data set [1] concerns HeLa Kyoto. Briefly: solubility in G1/S (NP-40 vs SDS abundance) (log2 ratio); higher = more soluble. Conditions: cell cycle stage: G1/S.
Data set [2] has as its system HeLa Kyoto. Briefly: melting temperature (median over replicates), in situ; higher = more thermally stable.
Data set [3] has as its system HeLa Kyoto. Briefly: solubility change mitosis vs G1/S (difference of NP-40 vs SDS log2 ratios) (log2 ratio difference); higher = more soluble in mitosis.
Data set [4] concerns HeLa Kyoto. Briefly: thermal stability score vs G1/S (z-score of summed log2 fold changes over temperatures); higher = more thermally stable than in G1/S.
Where [5] appears, read: cell cycle stage: early G1 (4.5 h after nocodazole release).
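Wherever melting temperature (median over replicates), in situ is given: HeLa Kyoto cells synchronized by double thymidine or nocodazole block, proteins quantified by TMT10plex mass spectrometry, three independent biological replicates.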
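Wherever solubility change mitosis vs G1/S (difference of NP-40 vs SDS log2 ratios) is given: synchronized HeLa Kyoto cells (double thymidine block for G1/S, nocodazole release for mitosis), protein amounts in NP-40 versus SDS lysates quantified by mass spectrometry, three biological replicates.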
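Wherever solubility in G1/S (NP-40 vs SDS abundance) is given: HeLa Kyoto cells arrested at G1/S by double thymidine block, proteins quantified by TMT10plex mass spectrometry in mild NP-40 versus SDS extracts, three biological replicates.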
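Wherever thermal stability score vs G1/S (z-score of summed log2 fold changes over temperatures) is given: synchronized HeLa Kyoto cells, proteins quantified by TMT10plex mass spectrometry, three biological replicates, mitosis taken 0.5 h after nocodazole release, G1/S directly after double thymidine block.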

Consider “MEPLAAYPLKCSGPRAKVFAVLLSIVLCTVTLFLLQLKFLKPKINSFYAFEVKDAKGRTVSLEKYKGKVSLVVNVASDCQLTDRNYLGLKELHKEFGPSHFSVLAFPCNQFGESEPRPSKEVESFARKNYGVTFPIFHKIKILGSEGEPAFRFLVDSSKKEPRWNFWKYLVNPEGQVVKFWKPEEPIEVIRPDIAALVRQVIIKKKEDL [GPX8]”, for which the “solubility in G1/S (log2)” value with HeLa Kyoto [1] was 0.0659. The melting temperature with HeLa Kyoto [2] (cell cycle stage: G1/S) was determined as 52.8 °C; in the data set on HeLa Kyoto [2] (cell cycle stage: mitosis), 52.3 °C. Besides, the “solubility change mitosis (log2)” value in the data set on HeLa Kyoto [3] is -0.208. For the same sequence, the thermal stability score in the data set on HeLa Kyoto [4] (setting [5]) was 3.63; with HeLa Kyoto [4] (cell cycle stage: mitosis), 4.95.
Turning to “MEPSSLELPADTVQRIAAELKCHPTDERVALHLDEEDKLRHFRECFYIPKIQDLPPVDLSLVNKDENAIYFLGNSLGLQPKMVKTYLEEELDKWAKIAAYGHEVGKRPWITGDESIVGLMKDIVGANEKEIALMNALTVNLHLLMLSFFKPTPKRYKILLEAKAFPSDHYAIESQLQLHGLNIEESMRMIKPREGEETLRIEDILEVIEKEGDSIAVILFSGVHFYTGQHFNIPAITKAGQAKGCYVGFDLAHAVGNVELYLHDWGVDFACWCSYKYLNAGAGGIAGAFIHEKHAHTIKPALVGWFGHELSTRFKMDNKLQLIPGVCGFRISNPPILLVCSLHASLEIFKQATMKALRKKSVLLTGYLEYLIKHNYGKDKAATKKPVVNIITPSHVEERGCQLTITFSVPNKDVFQELEKRGVVCDKRNPNGIRVAPVPLYNSFHDVYKFTNLLTSILDSAETKN [KYNU]”, in the data set on HeLa Kyoto [1], the “solubility in G1/S (log2)” value was 0.121. Besides, the melting temperature is 61.5 °C with HeLa Kyoto [2] (cell cycle stage: G1/S) and 62.3 °C in the data set with HeLa Kyoto [2] (cell cycle stage: mitosis). In addition, the “solubility change mitosis (log2)” value in the data set on HeLa Kyoto [3] was -0.229. Further, the thermal stability score with HeLa Kyoto [4] (setting [5]) is -0.273; with HeLa Kyoto [4] (cell cycle stage: mitosis), -0.415.
As for “MEQLRAAARLQIVLGHLGRPSAGAVVAHPTSGTISSASFHPQQFQYTLDNNVLTLEQRKFYEENGFLVIKNLVPDADIQRFRNEFEKICRKEVKPLGLTVMRDVTISKSEYAPSEKMITKVQDFQEDKELFRYCTLPEILKYVECFTGPNIMAMHTMLINKPPDSGKKTSRHPLHQDLHYFPFRPSDLIVCAWTAMEHISRNNGCLVVLPGTHKGSLKPHDYPKWEGGVNKMFHGIQDYEENKARVHLVMEKGDTVFFHPLLIHGSGQNKTQGFRKAISCHFASADCHYIDVKGTSQENIEKEVVGIAHKFFGAENSVNLKDIWMFRARLVKGERTNL [PHYH]”, the “solubility in G1/S (log2)” value in the data set on HeLa Kyoto [1] amounted to 0.298. The melting temperature in the data set with HeLa Kyoto [2] (cell cycle stage: G1/S) worked out at 51.6 °C; in the data set with HeLa Kyoto [2] (cell cycle stage: mitosis) it was 52.4 °C. Also, in the data set on HeLa Kyoto [3], the “solubility change mitosis (log2)” value is -0.191. The thermal stability score in the data set on HeLa Kyoto [4] (setting [5]) was determined as 2.97; in the data set on HeLa Kyoto [4] (cell cycle stage: mitosis), 2.13.
For the sequence “MEQVAEGARVTAVPVSAADSTEELAEVEEGVGVVGEDNDAAARGAEAFGDSEEDGEDVFEVEKILDMKTEGGKVLYKVRWKGYTSDDDTWEPEIHLEDCKEVLLEFRKKIAENKAKAVRKDIQRLSLNNDIFEANSDSDQQSETKEDTSPKKKKKKLRQREEKSPDDLKKKKAKAGKLKDKSKPDLESSLESLVFDLRTKKRISEAKEELKESKKPKKDEVKETKELKKVKKGEIRDLKTKTREDPKENRKTKKEKFVESQVESESSVLNDSPFPEDDSEGLHSDSREEKQNTKSARERAGQDMGLEHGFEKPLDSAMSAEEDTDVRGRRKKKTPRKAEDTRENRKLENKNAFLEKKTVPKKQRNQDRSKSAAELEKLMPVSAQTPKGRRLSGEERGLWSTDSAEEDKETKRNESKEKYQKRHDSDKEEKGRKEPKGLKTLKEIRNAFDLFKLTPEEKNDVSENNRKREEIPLDFKTIDDHKTKENKQSLKERRNTRDETDTWAYIAAEGDQEVLDSVCQADENSDGRQQILSLGMDLQLEWMKLEDFQKHLDGKDENFAATDAIPSNVLRDAVKNGDYITVKVALNSNEEYNLDQEDSSGMTLVMLAAAGGQDDLLRLLITKGAKVNGRQKNGTTALIHAAEKNFLTTVAILLEAGAFVNVQQSNGETALMKACKRGNSDIVRLVIECGADCNILSKHQNSALHFAKQSNNVLVYDLLKNHLETLSRVAEETIKDYFEARLALLEPVFPIACHRLCEGPDFSTDFNYKPPQNIPEGSGILLFIFHANFLGKEVIARLCGPCSVQAVVLNDKFQLPVFLDSHFVYSFSPVAGPNKLFIRLTEAPSAKVKLLIGAYRVQLQ [MPHOSPH8]”, the “solubility in G1/S (log2)” value in the data set with HeLa Kyoto [1] is -1.16. The values for the melting temperature in the data set on HeLa Kyoto [2] (cell cycle stage: G1/S) and in the data set on HeLa Kyoto [2] (cell cycle stage: mitosis) were 49.3 °C and 50 °C, respectively. For the same sequence, the “solubility change mitosis (log2)” value in the data set on HeLa Kyoto [3] was 0.82. Moreover, the thermal stability score was determined as 0.43 in the data set with HeLa Kyoto [4] (setting [5]) and 1.88 in the data set with HeLa Kyoto [4] (cell cycle stage: mitosis).
Consider “MEQVEILRKFIQRVQAMKSPDHNGEDNFARDFMRLRRLSTKYRTEKIYPTATGEKEENVKKNRYKDILPFDHSRVKLTLKTPSQDSDYINANFIKGVYGPKAYVATQGPLANTVIDFWRMIWEYNVVIIVMACREFEMGRKKCERYWPLYGEDPITFAPFKISCEDEQARTDYFIRTLLLEFQNESRRLYQFHYVNWPDHDVPSSFDSILDMISLMRKYQEHEDVPICIHCSAGCGRTGAICAIDYTWNLLKAGKIPEEFNVFNLIQEMRTQRHSAVQTKEQYELVHRAIAQLFEKQLQLYEIHGAQKIADGVNEINTENMVSSIEPEKQDSPPPKPPRTRSCLVEGDAKEEILQPPEPHPVPPILTPSPPSAFPTVTTVWQDNDRYHPKPVLHMVSSEQHSADLNRNYSKSTELPGKNESTIEQIDKKLERNLSFEIKKVPLQEGPKSFDGNTLLNRGHAIKIKSASPCIADKISKPQELSSDLNVGDTSQNSCVDCSVTQSNKVSVTPPEESQNSDTPPRPDRLPLDEKGHVTWSFHGPENAIPIPDLSEGNSSDINYQTRKTVSLTPSPTTQVETPDLVDHDNTSPLFRTPLSFTNPLHSDDSDSDERNSDGAVTQNKTNISTASATVSAATSTESISTRKVLPMSIARHNIAGTTHSGAEKDVDVSEDSPPPLPERTPESFVLASEHNTPVRSEWSELQSQERSEQKKSEGLITSENEKCDHPAGGIHYEMCIECPPTFSDKREQISENPTEATDIGFGNRCGKPKGPRDPPSEWT [PTPN12]”, for which the “solubility in G1/S (log2)” value in the data set on HeLa Kyoto [1] is 0.143. The melting temperature in the data set on HeLa Kyoto [2] (cell cycle stage: G1/S) is 49.4 °C; in the data set on HeLa Kyoto [2] (cell cycle stage: mitosis), 49.8 °C. For the same sequence, the “solubility change mitosis (log2)” value with HeLa Kyoto [3] is -0.242. The values for the thermal stability score with HeLa Kyoto [4] (setting [5]) and in the data set with HeLa Kyoto [4] (cell cycle stage: mitosis) were -0.24 and 0.678, respectively.
